Earlier results on one molecule are cited in patent publication US6446032B1, “Designing compounds specifically inhibiting ribonucleic acid by binding to the minor groove” (Massachusetts Institute of Technology, priority 1990, dated 2002).

In the series the test system is normal cells as well as tumor cells. Conditions: binds and cleaves all rRNAs.

B1: Alpha-sarcin: cytotoxic protein with potent antisarcoma activity, isolated from a mold, that inactivates ribosomes by cleaving the rRNA (protein, UniProt P00655 28-177, looked up)
Ribonuclease alpha-sarcin: AVTWTCLNDQKNPKTNKYETKRLLYNQNKAESNSHHAPLSDGKTGSSYPHWFTNGYDGDGKLPKGRTPIKFGKSDCDRPPKHSKDGNGKTDHYLLEFPTFPDGHDYKFDSKKPKENPGPARVIYTYPNKVFCGIIAHTKENQGELKLCSH
On to B1, for which the toxicity to cells result is “highly toxic to normal cells as well as tumor cells”.
